Results from US20140087995A1 (published 2014).
Numbered stars: 1 amine (or outer) side, 2 acyl side, 3 side chain; on linkers, the order of the positions; unused ones are H or OH. Bridge positions count the residues as written; N and C are the ends. Side chains are listed from the residue outwards. Ends that are not written are not given here. * marks the point of attachment. C20 diacid = O=C(O)CCCCCCCCCCCCCCCCCCC(=O)*; γGlu = O=C(O)[C@H](CCC(=O)[*:2])N[*:1]; AEEA = NCCOCCOCC(=O)O

How the values were obtained:
[1] = biological target: T1, human amylin receptor (amylin 3(a) receptor: human calcitonin receptor plus RAMP-3) (human, UniProt P30988 25-474; O60896 24-148, limits assumed); assay: cell-based or functional assay
T1 sequence (looked up) 1: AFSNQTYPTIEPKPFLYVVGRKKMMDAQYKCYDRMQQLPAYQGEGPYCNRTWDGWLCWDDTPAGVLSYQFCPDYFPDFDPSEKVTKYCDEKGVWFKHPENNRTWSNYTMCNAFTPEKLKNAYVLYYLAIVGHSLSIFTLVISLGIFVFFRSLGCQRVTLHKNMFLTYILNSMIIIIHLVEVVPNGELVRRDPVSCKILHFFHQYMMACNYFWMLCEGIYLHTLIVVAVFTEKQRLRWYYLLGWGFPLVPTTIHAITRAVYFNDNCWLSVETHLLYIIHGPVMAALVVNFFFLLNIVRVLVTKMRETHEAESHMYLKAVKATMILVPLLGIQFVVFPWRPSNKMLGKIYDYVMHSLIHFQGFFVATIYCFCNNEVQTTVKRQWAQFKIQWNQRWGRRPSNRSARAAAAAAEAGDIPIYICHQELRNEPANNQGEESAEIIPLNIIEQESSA
T1 sequence (looked up) 2: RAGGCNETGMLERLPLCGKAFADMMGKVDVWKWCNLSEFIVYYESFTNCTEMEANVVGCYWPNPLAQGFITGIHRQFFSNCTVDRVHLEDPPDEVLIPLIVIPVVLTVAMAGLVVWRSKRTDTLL

[2] = biological target: T2, human calcitonin receptor (human, UniProt P30988 25-474); assay: cell-based or functional assay
T2 sequence (looked up): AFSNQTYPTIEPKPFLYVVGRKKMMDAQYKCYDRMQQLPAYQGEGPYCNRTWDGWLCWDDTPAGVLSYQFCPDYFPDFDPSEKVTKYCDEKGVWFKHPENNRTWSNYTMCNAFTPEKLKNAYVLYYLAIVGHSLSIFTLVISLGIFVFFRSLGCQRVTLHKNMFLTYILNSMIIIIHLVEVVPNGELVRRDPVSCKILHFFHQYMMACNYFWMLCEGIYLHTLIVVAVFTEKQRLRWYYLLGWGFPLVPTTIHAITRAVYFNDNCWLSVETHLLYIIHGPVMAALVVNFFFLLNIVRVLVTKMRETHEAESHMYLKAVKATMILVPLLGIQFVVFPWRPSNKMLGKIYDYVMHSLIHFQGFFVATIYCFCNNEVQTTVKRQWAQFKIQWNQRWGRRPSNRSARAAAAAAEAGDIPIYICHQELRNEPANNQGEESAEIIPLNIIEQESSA

B1: N^ε-[2-[2-[2-[[(4S)-4-carboxy-4-(19-carboxynonadecanoylamino)butanoyl]amino]ethoxy]ethoxy]acetyl]Lys[Arg1,Arg17,Pro21,Pro27,His35]-h-amylin (peptide)
peptide: K([AEEA-γGlu-C20 diacid])RCNTATCATQRLANFLRHSSPNFGAIPSSTNVGSHTY-NH2
modifications: disulfide 3-8; N-terminus assumed
SMILES: CC[C@H](C)[C@H](NC(=O)[C@H](C)NC(=O)CNC(=O)[C@H](Cc1ccccc1)NC(=O)[C@H](CC(N)=O)NC(=O)[C@@H]1CCCN1C(=O)[C@H](CO)NC(=O)[C@H](CO)NC(=O)[C@H](Cc1c[nH]cn1)NC(=O)[C@H](CCCNC(=N)N)NC(=O)[C@H](CC(C)C)NC(=O)[C@H](Cc1ccccc1)NC(=O)[C@H](CC(N)=O)NC(=O)[C@H](C)NC(=O)[C@H](CC(C)C)NC(=O)[C@H](CCCNC(=N)N)NC(=O)[C@H](CCC(N)=O)NC(=O)[C@@H](NC(=O)[C@H](C)NC(=O)[C@@H]1CSSC[C@H](NC(=O)[C@H](CCCNC(=N)N)NC(=O)[C@@H](N)CCCCNC(=O)COCCOCCNC(=O)CC[C@H](NC(=O)CCCCCCCCCCCCCCCCCCC(=O)O)C(=O)O)C(=O)N[C@@H](CC(N)=O)C(=O)N[C@@H]([C@@H](C)O)C(=O)N[C@@H](C)C(=O)N[C@@H]([C@@H](C)O)C(=O)N1)[C@@H](C)O)C(=O)N1CCC[C@H]1C(=O)N[C@@H](CO)C(=O)N[C@@H](CO)C(=O)N[C@H](C(=O)N[C@@H](CC(N)=O)C(=O)N[C@H](C(=O)NCC(=O)N[C@@H](CO)C(=O)N[C@@H](Cc1c[nH]cn1)C(=O)N[C@H](C(=O)N[C@@H](Cc1ccc(O)cc1)C(N)=O)[C@@H](C)O)C(C)C)[C@@H](C)O
notes: also called compound 45
- hAmylin-R funct. EC50 [1]: 0.594 nM
- Ratio hCT/hAmylin funct. (hCTR EC50 against hAmylin-R EC50) [2]: 17
- hCTR funct. EC50 [2]: 10.1 nM
